Bridge positions count the residues as written; N and C are the ends. Square brackets hold non-standard residues; d marks the D form. Ends that are not written are not given here. * marks the point of attachment. Palmitoyl = CCCCCCCCCCCCCCCC(=O)*; NMeK = CN[C@@H](CCCCN)C(=O)O; Orn = NCCC[C@H](N)C(=O)O; Dab = NCC[C@H](N)C(=O)O; Dap = NC[C@H](N)C(=O)O
Columns and labels:
[1] = target: CLR fused to EYFP with RAMP2 fused to ECFP; test: cell-based or functional assay
[2] = target: human adrenomedullin-receptor (human, UniProt Q16602 23-461); test: cell-based or functional assay
Sequence of human adrenomedullin-receptor (Q16602 23-461): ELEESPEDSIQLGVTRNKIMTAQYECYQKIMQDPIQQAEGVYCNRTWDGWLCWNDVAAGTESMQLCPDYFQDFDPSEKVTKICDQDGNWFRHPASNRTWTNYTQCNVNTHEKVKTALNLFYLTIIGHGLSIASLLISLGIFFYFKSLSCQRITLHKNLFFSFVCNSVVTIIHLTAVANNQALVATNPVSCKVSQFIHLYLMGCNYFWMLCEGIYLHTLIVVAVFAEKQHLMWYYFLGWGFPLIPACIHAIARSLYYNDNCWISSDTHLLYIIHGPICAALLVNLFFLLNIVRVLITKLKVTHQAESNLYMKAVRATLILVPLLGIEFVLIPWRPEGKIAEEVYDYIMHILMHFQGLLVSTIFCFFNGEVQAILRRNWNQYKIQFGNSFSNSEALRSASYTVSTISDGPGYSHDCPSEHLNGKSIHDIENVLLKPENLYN

Sequence of CLR fused to EYFP with RAMP2 fused to ECFP (Q16602 whole entry, chain 1 of 2, the tested form may be a part): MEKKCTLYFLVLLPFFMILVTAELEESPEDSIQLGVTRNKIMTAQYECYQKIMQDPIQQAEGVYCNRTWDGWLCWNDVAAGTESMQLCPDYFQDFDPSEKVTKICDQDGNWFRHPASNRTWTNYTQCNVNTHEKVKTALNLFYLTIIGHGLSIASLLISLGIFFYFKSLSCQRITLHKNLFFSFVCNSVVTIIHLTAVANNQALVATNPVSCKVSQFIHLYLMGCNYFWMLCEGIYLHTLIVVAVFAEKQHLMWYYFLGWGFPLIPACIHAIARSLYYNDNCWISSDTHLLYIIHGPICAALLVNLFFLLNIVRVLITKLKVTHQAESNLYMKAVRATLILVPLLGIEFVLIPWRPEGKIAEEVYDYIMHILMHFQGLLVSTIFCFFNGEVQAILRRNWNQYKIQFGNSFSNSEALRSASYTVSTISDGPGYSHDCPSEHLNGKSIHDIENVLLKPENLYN
Sequence of CLR fused to EYFP with RAMP2 fused to ECFP (O60895 whole entry, chain 2 of 2, further chain, the tested form may be a part): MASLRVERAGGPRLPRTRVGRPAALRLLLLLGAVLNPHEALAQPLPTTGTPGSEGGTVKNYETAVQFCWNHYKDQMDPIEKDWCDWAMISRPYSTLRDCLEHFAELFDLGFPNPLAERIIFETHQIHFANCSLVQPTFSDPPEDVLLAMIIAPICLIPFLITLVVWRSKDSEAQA

Binder	EC50 [nM], cAMP assay (CRE-luciferase luminescence, HEK293 cells) [1]	EC50 [nM], aequorin luminescence of CHO adrenomedullin-receptor reporter cells [2]
K(Palmitoyl)G[Dap]RFGTETVQKLAHQIYQFTDKDKDNVAPRS[NMeK]ISPQGY-NH2 (lactam 3-8; N-terminus assumed; SMILES CCCCCCCCCCCCCCCC(=O)NCCCC[C@H](N)C(=O)NCC(=O)N[C@H]1CNC(=O)CC[C@@H](C(=O)N[C@H](C(=O)N[C@H](C(=O)N[C@@H](CCC(N)=O)C(=O)N[C@@H](CCCCN)C(=O)N[C@@H](CC(C)C)C(=O)N[C@@H](C)C(=O)N[C@@H](Cc2c[nH]cn2)C(=O)N[C@@H](CCC(N)=O)C(=O)N[C@H](C(=O)N[C@@H](Cc2ccc(O)cc2)C(=O)N[C@@H](CCC(N)=O)C(=O)N[C@@H](Cc2ccccc2)C(=O)N[C@H](C(=O)N[C@@H](CC(=O)O)C(=O)N[C@@H](CCCCN)C(=O)N[C@@H](CC(=O)O)C(=O)N[C@@H](CCCCN)C(=O)N[C@@H](CC(=O)O)C(=O)N[C@@H](CC(N)=O)C(=O)N[C@H](C(=O)N[C@@H](C)C(=O)N2CCC[C@H]2C(=O)N[C@@H](CCCNC(=N)N)C(=O)N[C@@H](CO)C(=O)N(C)[C@@H](CCCCN)C(=O)N[C@H](C(=O)N[C@@H](CO)C(=O)N2CCC[C@H]2C(=O)N[C@@H](CCC(N)=O)C(=O)NCC(=O)N[C@@H](Cc2ccc(O)cc2)C(N)=O)[C@@H](C)CC)C(C)C)[C@@H](C)O)[C@@H](C)CC)C(C)C)[C@@H](C)O)NC(=O)[C@H]([C@@H](C)O)NC(=O)CNC(=O)[C@H](Cc2ccccc2)NC(=O)[C@H](CCCNC(=N)N)NC1=O) [[K^14(PAM), (Dpr^16,E^21)lac, N-Me-K^46]ADM(14-52)]	3.4 nM	56 nM
GG[Orn]RFGTETVQKLAHQIYQFTDKDKDNVAPRSKISPQGY-NH2 (lactam 3-8; N-terminus assumed; SMILES CC[C@H](C)[C@H](NC(=O)[C@H](CCC(N)=O)NC(=O)[C@H](Cc1c[nH]cn1)NC(=O)[C@H](C)NC(=O)[C@H](CC(C)C)NC(=O)[C@H](CCCCN)NC(=O)[C@H](CCC(N)=O)NC(=O)[C@@H](NC(=O)[C@@H](NC(=O)[C@@H]1CCC(=O)NCCC[C@H](NC(=O)CNC(=O)CN)C(=O)N[C@@H](CCCNC(=N)N)C(=O)N[C@@H](Cc2ccccc2)C(=O)NCC(=O)N[C@@H]([C@@H](C)O)C(=O)N1)[C@@H](C)O)C(C)C)C(=O)N[C@@H](Cc1ccc(O)cc1)C(=O)N[C@@H](CCC(N)=O)C(=O)N[C@@H](Cc1ccccc1)C(=O)N[C@H](C(=O)N[C@@H](CC(=O)O)C(=O)N[C@@H](CCCCN)C(=O)N[C@@H](CC(=O)O)C(=O)N[C@@H](CCCCN)C(=O)N[C@@H](CC(=O)O)C(=O)N[C@@H](CC(N)=O)C(=O)N[C@H](C(=O)N[C@@H](C)C(=O)N1CCC[C@H]1C(=O)N[C@@H](CCCNC(=N)N)C(=O)N[C@@H](CO)C(=O)N[C@@H](CCCCN)C(=O)N[C@H](C(=O)N[C@@H](CO)C(=O)N1CCC[C@H]1C(=O)N[C@@H](CCC(N)=O)C(=O)NCC(=O)N[C@@H](Cc1ccc(O)cc1)C(N)=O)[C@@H](C)CC)C(C)C)[C@@H](C)O) [[G^14, (Orn^16, E^21)lac]ADM(14-52)]	9.1 nM	27 nM
GGKRFGTDTVQKLAHQIYQFTDKDKDNVAPRSKISPQGY-NH2 (lactam 3-8; N-terminus assumed; SMILES CC[C@H](C)[C@H](NC(=O)[C@H](CCC(N)=O)NC(=O)[C@H](Cc1c[nH]cn1)NC(=O)[C@H](C)NC(=O)[C@H](CC(C)C)NC(=O)[C@H](CCCCN)NC(=O)[C@H](CCC(N)=O)NC(=O)[C@@H](NC(=O)[C@@H](NC(=O)[C@@H]1CC(=O)NCCCC[C@H](NC(=O)CNC(=O)CN)C(=O)N[C@@H](CCCNC(=N)N)C(=O)N[C@@H](Cc2ccccc2)C(=O)NCC(=O)N[C@@H]([C@@H](C)O)C(=O)N1)[C@@H](C)O)C(C)C)C(=O)N[C@@H](Cc1ccc(O)cc1)C(=O)N[C@@H](CCC(N)=O)C(=O)N[C@@H](Cc1ccccc1)C(=O)N[C@H](C(=O)N[C@@H](CC(=O)O)C(=O)N[C@@H](CCCCN)C(=O)N[C@@H](CC(=O)O)C(=O)N[C@@H](CCCCN)C(=O)N[C@@H](CC(=O)O)C(=O)N[C@@H](CC(N)=O)C(=O)N[C@H](C(=O)N[C@@H](C)C(=O)N1CCC[C@H]1C(=O)N[C@@H](CCCNC(=N)N)C(=O)N[C@@H](CO)C(=O)N[C@@H](CCCCN)C(=O)N[C@H](C(=O)N[C@@H](CO)C(=O)N1CCC[C@H]1C(=O)N[C@@H](CCC(N)=O)C(=O)NCC(=O)N[C@@H](Cc1ccc(O)cc1)C(N)=O)[C@@H](C)CC)C(C)C)[C@@H](C)O) [[G^14, (K^16, D^21)lac]ADM(14-52)]	> 1000 nM	> 1000 nM
GGDRFGT[Dap]TVQKLAHQIYQFTDKDKDNVAPRSKISPQGY-NH2 (lactam 3-8) [[G^14, (D^16, Dpr^21)lac]ADM(14-52)]	> 1000 nM	32 nM
GG[Dap]RFGTDTVQKLAHQIYQFTDKDKDNVAPRSKISPQGY-NH2 (lactam 3-8; N-terminus assumed; SMILES CC[C@H](C)[C@H](NC(=O)[C@H](CCC(N)=O)NC(=O)[C@H](Cc1c[nH]cn1)NC(=O)[C@H](C)NC(=O)[C@H](CC(C)C)NC(=O)[C@H](CCCCN)NC(=O)[C@H](CCC(N)=O)NC(=O)[C@@H](NC(=O)[C@@H](NC(=O)[C@@H]1CC(=O)NC[C@H](NC(=O)CNC(=O)CN)C(=O)N[C@@H](CCCNC(=N)N)C(=O)N[C@@H](Cc2ccccc2)C(=O)NCC(=O)N[C@@H]([C@@H](C)O)C(=O)N1)[C@@H](C)O)C(C)C)C(=O)N[C@@H](Cc1ccc(O)cc1)C(=O)N[C@@H](CCC(N)=O)C(=O)N[C@@H](Cc1ccccc1)C(=O)N[C@H](C(=O)N[C@@H](CC(=O)O)C(=O)N[C@@H](CCCCN)C(=O)N[C@@H](CC(=O)O)C(=O)N[C@@H](CCCCN)C(=O)N[C@@H](CC(=O)O)C(=O)N[C@@H](CC(N)=O)C(=O)N[C@H](C(=O)N[C@@H](C)C(=O)N1CCC[C@H]1C(=O)N[C@@H](CCCNC(=N)N)C(=O)N[C@@H](CO)C(=O)N[C@@H](CCCCN)C(=O)N[C@H](C(=O)N[C@@H](CO)C(=O)N1CCC[C@H]1C(=O)N[C@@H](CCC(N)=O)C(=O)NCC(=O)N[C@@H](Cc1ccc(O)cc1)C(N)=O)[C@@H](C)CC)C(C)C)[C@@H](C)O) [[G^14, (Dpr^16, D^21)lac]ADM(14-52)]	67 nM	49.6 nM
GGCRFGTXTVQKLAHQIYQFTDKDKDNVAPRSKISPQGY (palmitic acid (PAM) on the N-terminus (G14); positions 16 and 21 (residues 3 and 8 of the letters) together are cystathionine (C^16→U^21, thioether); X stands for the printed U at 21; C-terminal …) [PAM[G^14, (C^16→U^21)]ADM(14-52)]	16.9 nM	15 nM
GGDRFGTKTVQKLAHQIYQFTDKDKDNVAPRSKISPQGY-NH2 (lactam 3-8) [[G^14, (D^16, K^21)lac]ADM(14-52)]	2.3 nM	15 nM
GGERFGT[Dap]TVQKLAHQIYQFTDKDKDNVAPRSKISPQGY-NH2 (lactam 3-8) [[G^14, (E^16, Dpr^21)lac]ADM(14-52)]	303 nM	> 1000 nM
GGDRFGT[Dab]TVQKLAHQIYQFTDKDKDNVAPRSKISPQGY-NH2 (lactam 3-8) [[G^14, (D^16, Dab^21)lac]ADM(14-52)]	21 nM	21.1 nM
GG[Dab]RFGTDTVQKLAHQIYQFTDKDKDNVAPRSKISPQGY-NH2 (lactam 3-8; N-terminus assumed; SMILES CC[C@H](C)[C@H](NC(=O)[C@H](CCC(N)=O)NC(=O)[C@H](Cc1c[nH]cn1)NC(=O)[C@H](C)NC(=O)[C@H](CC(C)C)NC(=O)[C@H](CCCCN)NC(=O)[C@H](CCC(N)=O)NC(=O)[C@@H](NC(=O)[C@@H](NC(=O)[C@@H]1CC(=O)NCC[C@H](NC(=O)CNC(=O)CN)C(=O)N[C@@H](CCCNC(=N)N)C(=O)N[C@@H](Cc2ccccc2)C(=O)NCC(=O)N[C@@H]([C@@H](C)O)C(=O)N1)[C@@H](C)O)C(C)C)C(=O)N[C@@H](Cc1ccc(O)cc1)C(=O)N[C@@H](CCC(N)=O)C(=O)N[C@@H](Cc1ccccc1)C(=O)N[C@H](C(=O)N[C@@H](CC(=O)O)C(=O)N[C@@H](CCCCN)C(=O)N[C@@H](CC(=O)O)C(=O)N[C@@H](CCCCN)C(=O)N[C@@H](CC(=O)O)C(=O)N[C@@H](CC(N)=O)C(=O)N[C@H](C(=O)N[C@@H](C)C(=O)N1CCC[C@H]1C(=O)N[C@@H](CCCNC(=N)N)C(=O)N[C@@H](CO)C(=O)N[C@@H](CCCCN)C(=O)N[C@H](C(=O)N[C@@H](CO)C(=O)N1CCC[C@H]1C(=O)N[C@@H](CCC(N)=O)C(=O)NCC(=O)N[C@@H](Cc1ccc(O)cc1)C(N)=O)[C@@H](C)CC)C(C)C)[C@@H](C)O) [[G^14, (Dab^16, D^21)lac]ADM(14-52)]	112 nM	> 1000 nM
GG[Dap]RFGTETVQKLAHQIYQFTDKDKDNVAPRSKISPQGY-NH2 (lactam 3-8; N-terminus assumed; SMILES CC[C@H](C)[C@H](NC(=O)[C@H](CCC(N)=O)NC(=O)[C@H](Cc1c[nH]cn1)NC(=O)[C@H](C)NC(=O)[C@H](CC(C)C)NC(=O)[C@H](CCCCN)NC(=O)[C@H](CCC(N)=O)NC(=O)[C@@H](NC(=O)[C@@H](NC(=O)[C@@H]1CCC(=O)NC[C@H](NC(=O)CNC(=O)CN)C(=O)N[C@@H](CCCNC(=N)N)C(=O)N[C@@H](Cc2ccccc2)C(=O)NCC(=O)N[C@@H]([C@@H](C)O)C(=O)N1)[C@@H](C)O)C(C)C)C(=O)N[C@@H](Cc1ccc(O)cc1)C(=O)N[C@@H](CCC(N)=O)C(=O)N[C@@H](Cc1ccccc1)C(=O)N[C@H](C(=O)N[C@@H](CC(=O)O)C(=O)N[C@@H](CCCCN)C(=O)N[C@@H](CC(=O)O)C(=O)N[C@@H](CCCCN)C(=O)N[C@@H](CC(=O)O)C(=O)N[C@@H](CC(N)=O)C(=O)N[C@H](C(=O)N[C@@H](C)C(=O)N1CCC[C@H]1C(=O)N[C@@H](CCCNC(=N)N)C(=O)N[C@@H](CO)C(=O)N[C@@H](CCCCN)C(=O)N[C@H](C(=O)N[C@@H](CO)C(=O)N1CCC[C@H]1C(=O)N[C@@H](CCC(N)=O)C(=O)NCC(=O)N[C@@H](Cc1ccc(O)cc1)C(N)=O)[C@@H](C)CC)C(C)C)[C@@H](C)O) [[G^14, (Dpr^16, E^21)lac]ADM(14-52)]	2.9 nM	5.26 nM
